Results on 9 molecules are retold here after US20230051304A1 (Regeneron, published 2023).

Residue numbers refer to the chain shown, from its start. Like-named read-outs stand apart in the source and are kept apart here.

Experiment [1] has as its target T1, murine IL12 receptor complex (IL12Rβ1 and IL12Rβ2) (mouse, UniProt Q60837 20-738; P97378 24-874).
T1 construct: whole, on cells; also called IL12 receptors beta 1 (IL12Rβ1) and beta 2 (IL12Rβ2); IL12Rb1 and IL12Rb2
The experiment can be described thus: flow cytometry on activated primary mouse T cells (CD25+ CD8+ CD90.2+), anti-human Fc detection, MFI. The method, then: Spleens were harvested from C57BL/6 mice and dissociated manually. Splenocytes were stimulated by culturing for 48 hours in RPMI+10% FBS+2 mM L-glutamine/Pen/Strep in the presence of anti-CD3 and anti-CD28 activation beads (Thermo/11456D) at a 1:3 (beads:splenocytes) ratio and in the presence of 30 U/mL human IL-2 (proleukin). […] Cells were washed once before plating 200,000 cells per well in a 96-well plate and staining indicated concentration of test IL12-Fc fusion proteins or variant molecules for 2 hours on ice. Cells were washed twice before staining for the Fc portion using an ahuFC antibody (Jackson Immuno 109-136-170). Data was acquired using a BD LSRFortessa™ X-20 instrument. Data plots represent geometric mean fluorescence intensity (MFI) of the ahuFC signal from CD25+, CD8+CD90.2+ T cells.
(In general: Flow cytometry measures light scatter and fluorescence of single cells or particles in a stream.)

The target in experiment [2] is T1, murine IL12 receptor complex (IL12Rβ1 …). The experiment can be described thus: cell-based or functional assay.
For experiment [3] the target is unchanged. As to the kind of experiment: cell-based or functional assay. This is another data set of the same source.
For experiment [4] the target is unchanged. The experiment can be described thus: cell-based or functional assay. The source holds these as a separate data set.

T1 sequence (Q60837 20-738, chain 1 of 2): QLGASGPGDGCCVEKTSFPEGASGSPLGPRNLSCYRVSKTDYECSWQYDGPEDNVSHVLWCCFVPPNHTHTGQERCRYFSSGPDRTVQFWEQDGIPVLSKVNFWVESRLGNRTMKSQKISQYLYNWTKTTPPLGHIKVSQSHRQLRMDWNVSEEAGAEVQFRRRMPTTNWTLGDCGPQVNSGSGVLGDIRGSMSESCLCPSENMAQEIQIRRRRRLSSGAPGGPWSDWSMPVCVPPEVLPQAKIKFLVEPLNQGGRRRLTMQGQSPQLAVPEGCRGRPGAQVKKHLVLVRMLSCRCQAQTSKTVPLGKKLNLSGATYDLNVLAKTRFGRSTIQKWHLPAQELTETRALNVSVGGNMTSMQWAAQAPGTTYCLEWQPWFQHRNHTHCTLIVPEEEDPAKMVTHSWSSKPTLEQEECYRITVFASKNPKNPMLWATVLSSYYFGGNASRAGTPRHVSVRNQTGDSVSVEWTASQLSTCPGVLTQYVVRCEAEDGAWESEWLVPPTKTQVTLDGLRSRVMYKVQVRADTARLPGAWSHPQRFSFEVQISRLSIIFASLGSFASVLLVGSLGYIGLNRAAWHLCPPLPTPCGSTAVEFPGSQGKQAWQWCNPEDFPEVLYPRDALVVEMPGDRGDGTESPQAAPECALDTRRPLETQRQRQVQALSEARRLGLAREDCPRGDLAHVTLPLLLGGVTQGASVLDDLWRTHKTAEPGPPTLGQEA
T1 sequence (P97378 24-874, chain 2 of 2): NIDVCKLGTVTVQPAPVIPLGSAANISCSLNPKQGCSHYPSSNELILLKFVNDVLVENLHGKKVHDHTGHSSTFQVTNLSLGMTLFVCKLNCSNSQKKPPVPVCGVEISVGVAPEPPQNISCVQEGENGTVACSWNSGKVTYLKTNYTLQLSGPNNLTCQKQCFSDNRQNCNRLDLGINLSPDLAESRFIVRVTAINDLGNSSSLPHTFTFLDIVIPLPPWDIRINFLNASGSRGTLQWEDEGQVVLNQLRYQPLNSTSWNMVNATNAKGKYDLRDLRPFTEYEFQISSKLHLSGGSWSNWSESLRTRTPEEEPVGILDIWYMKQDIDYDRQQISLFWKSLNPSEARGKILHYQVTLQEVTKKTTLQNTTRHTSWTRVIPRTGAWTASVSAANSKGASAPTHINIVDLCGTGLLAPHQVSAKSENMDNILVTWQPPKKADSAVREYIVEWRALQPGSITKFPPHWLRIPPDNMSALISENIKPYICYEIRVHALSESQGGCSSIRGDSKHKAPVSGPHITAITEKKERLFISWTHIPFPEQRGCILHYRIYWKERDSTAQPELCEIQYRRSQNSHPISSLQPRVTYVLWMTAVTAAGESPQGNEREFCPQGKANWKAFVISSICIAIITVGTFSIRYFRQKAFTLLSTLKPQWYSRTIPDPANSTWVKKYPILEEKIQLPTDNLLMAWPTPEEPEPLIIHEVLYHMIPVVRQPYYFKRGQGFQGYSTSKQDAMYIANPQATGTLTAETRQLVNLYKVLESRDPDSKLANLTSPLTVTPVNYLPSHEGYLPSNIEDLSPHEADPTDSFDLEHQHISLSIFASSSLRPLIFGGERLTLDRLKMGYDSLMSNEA

B1: Fc-IL12Rβ1(D1)-p40-p35 x Fc (Fc fusion)
chain 1: ESKYGPPCPPCPAPPVAGPSVFLFPPKPKDTLMISRTPEVTCVVVDVSQEDPEVQFNWYVDGVEVHNAKTKPREEQFNSTYRVVSVLTVLHQDWLNGKEYKCKVSNKGLPSSIEKTISKAKGQPREPQVYTLPPSQEEMTKNQVSLSCAVKGFYPSDIAVEWESNGQPENNYKTTPPVLDSDGSFFLVSRLTVDKSRWQEGNVFSCSVMHEALHNRFTQKSLSLSPGK
chain 2: ESKYGPPCPPCPAPPVAGPSVFLFPPKPKDTLMISRTPEVTCVVVDVSQEDPEVQFNWYVDGVEVHNAKTKPREEQFNSTYRVVSVLTVLHQDWLNGKEYKCKVSNKGLPSSIEKTISKAKGQPREPQVYTLPPSQEEMTKNQVSLWCLVKGFYPSDIAVEWESNGQPENNYKTTPPVLDSDGSFFLYSRLTVDKSRWQEGNVFSCSVMHEALHNHYTQKSLSLSLGKGGGGSGGGGSGGGGSQLGASGPGDGCCVEKTSFPEGASGSPLGPRNLSCYRVSKTDYECSWQYDGPEDNVSHVLWCCFVPPNHTHTGQERCRYFSSGPDRTVQFWEQDGIPVLSKVNFWVESRLGNRTMKSQKISQYLYNWTKTTPPLGGGGSGGGGSGGGGSMWELEKDVYVVEVDWTPDAPGETVNLTCDTPEEDDITWTSDQRHGVIGSGKTLTITVKEFLDAGQYTCHKGGETLSHSHLLLHKKENGIWSTEILKNFKNKTFLKCEAPNYSGRFTCSWLVQRNMDLKFNIKSSSSSPDSRAVTCGMASLSAEKVTLDQRDYEKYSVSCQEDVTCPTAEETLPIELALEARQQNKYENYSTSFFIRDIIKPDPPKNLQMKPLKNSQVEVSWEYPDSWSTPHSYFSLKFFVRIQRKKEKMKETEEGCNQKGAFLVEKTSTEVQCKGGNVCVQAQDRYYNSSCSKWACVPCRVRSGGGGSGGGGSGGGGSRVIPVSGPARCLSQSRNLLKTTDDMVKTAREKLKHYSCTAEDIDHEDITRDQTSTLKTCLPLELHKNESCLATRETSSTTRGSCLPPQKTSLMMTLCLGSIYEDLKMYQTEFQAINAALQNHNHQQIILDKGMLVAIDELMQSLNHNGETLRQKPPVGEADPYRVKMKLCILLHAFSTRVVTINRVMGYLSSA
notes: Receptor-masked monovalent murine IL12; also called Fc x Fc-mIL12Rb1(D1)-mIL12p40-p35
For the molecule B1, the binding result in experiment [1] is “binds”.

B2: Bivalent: Fc-IL12(p40-p35) (Fc fusion)
chain: ESKYGPPCPPCPAPPVAGPSVFLFPPKPKDTLMISRTPEVTCVVVDVSQEDPEVQFNWYVDGVEVHNAKTKPREEQFNSTYRVVSVLTVLHQDWLNGKEYKCKVSNKGLPSSIEKTISKAKGQPREPQVYTLPPSQEEMTKNQVSLTCLVKGFYPSDIAVEWESNGQPENNYKTTPPVLDSDGSFFLYSRLTVDKSRWQEGNVFSCSVMHEALHNHYTQKSLSLSLGKGGGGSGGGGSGGGGSMWELEKDVYVVEVDWTPDAPGETVNLTCDTPEEDDITWTSDQRHGVIGSGKTLTITVKEFLDAGQYTCHKGGETLSHSHLLLHKKENGIWSTEILKNFKNKTFLKCEAPNYSGRFTCSWLVQRNMDLKFNIKSSSSSPDSRAVTCGMASLSAEKVTLDQRDYEKYSVSCQEDVTCPTAEETLPIELALEARQQNKYENYSTSFFIRDIIKPDPPKNLQMKPLKNSQVEVSWEYPDSWSTPHSYFSLKFFVRIQRKKEKMKETEEGCNQKGAFLVEKTSTEVQCKGGNVCVQAQDRYYNSSCSKWACVPCRVRSGGGGSGGGGSGGGGSRVIPVSGPARCLSQSRNLLKTTDDMVKTAREKLKHYSCTAEDIDHEDITRDQTSTLKTCLPLELHKNESCLATRETSSTTRGSCLPPQKTSLMMTLCLGSIYEDLKMYQTEFQAINAALQNHNHQQIILDKGMLVAIDELMQSLNHNGETLRQKPPVGEADPYRVKMKLCILLHAFSTRVVTINRVMGYLSSA
Consider B2, for which, in experiment [2], the “EC50 (M); STAT3-Luc reporter, CTLL2/STAT3-Luc cells” value (“EC50 (M) … CTLL2/STAT3-Luc cells” below) is 1.85e-11 M; the “Fold induction at 6.25 nM; STAT3-Luc reporter, CTLL2/STAT3-Luc cells” value is 6.73 fold; the “Max fold induction; STAT3-Luc reporter, CTLL2/STAT3-Luc cells” value (from here on “Max fold induction … CTLL2/STAT3-Luc cells”) amounted to 7.66 fold. In addition, in experiment [3], the “EC50 (M) … CTLL2/STAT3-Luc cells” value turned out to be 6.11e-11 M; the “Fold induction at 20 nM; STAT3-Luc reporter, CTLL2/STAT3-Luc cells” value is 12.8 fold; the “Max fold induction … CTLL2/STAT3-Luc cells” value stood at 14.4 fold. In addition, in experiment [4], the “EC50 (M) … CTLL2/STAT3-Luc cells” value worked out at 9.95e-11 M and the “Max fold induction … CTLL2/STAT3-Luc cells” value is 12.2 fold.

B3: Fc-p40-p35 x Fc-IL12Rβ2(D1) (Fc fusion)
chain 1: ESKYGPPCPPCPAPPVAGPSVFLFPPKPKDTLMISRTPEVTCVVVDVSQEDPEVQFNWYVDGVEVHNAKTKPREEQFNSTYRVVSVLTVLHQDWLNGKEYKCKVSNKGLPSSIEKTISKAKGQPREPQVYTLPPSQEEMTKNQVSLSCAVKGFYPSDIAVEWESNGQPENNYKTTPPVLDSDGSFFLVSRLTVDKSRWQEGNVFSCSVMHEALHNRFTQKSLSLSPGKGGGGSGGGGSGGGGSNIDVCKLGTVTVQPAPVIPLGSAANISCSLNPKQGCSHYPSSNELILLKFVNDVLVENLHGKKVHDHTGHSSTFQVTNLSLGMTLFVCKLNCSNSQKKPPVPVCGVEISVGV
chain 2: B2 chain with T147W
notes: Receptor-masked monovalent murine IL12; also called hIgG4s(HoleStar)-mIL12Rb2(D1) x hIgG4s(Knob)-mIL12p40-p35
B3: in experiment [1], the binding result is recorded as “binds”.

B4: Fc-p40-p35 x Fc (Fc fusion)
chain 1: B1 chain 1
chain 2: B2 chain with T147W
notes: hIgG4s(HoleStar) x hIgG4s(Knob)-p40-p35, murine IL12; also called Fc-p40-p35×Fc control; unmasked monovalent control
B4: the binding result in experiment [1] was “binds”.

B5: Fc-IL12(mutein 17) (Fc fusion)
chain: B2 chain with E336A, K438A
As to B5, in experiment [4], the “EC50 (M) … CTLL2/STAT3-Luc cells” value worked out at 3.53e-10 M and the “Max fold induction … CTLL2/STAT3-Luc cells” value came to 9.67 fold.

B6: Fc-IL12(mutein 14) (Fc fusion)
chain: B2 chain with E302A, F303A
With B6, in experiment [4], the “EC50 (M) … CTLL2/STAT3-Luc cells” value stood at 3.79e-09 M and the “Max fold induction … CTLL2/STAT3-Luc cells” value came out at 7.31 fold.

B7: Fc-p40-p35 x Fc-IL12Rβ1(D1) (Fc fusion)
chain 1: ESKYGPPCPPCPAPPVAGPSVFLFPPKPKDTLMISRTPEVTCVVVDVSQEDPEVQFNWYVDGVEVHNAKTKPREEQFNSTYRVVSVLTVLHQDWLNGKEYKCKVSNKGLPSSIEKTISKAKGQPREPQVYTLPPSQEEMTKNQVSLSCAVKGFYPSDIAVEWESNGQPENNYKTTPPVLDSDGSFFLVSRLTVDKSRWQEGNVFSCSVMHEALHNRFTQKSLSLSPGKGGGGSGGGGSGGGGSQLGASGPGDGCCVEKTSFPEGASGSPLGPRNLSCYRVSKTDYECSWQYDGPEDNVSHVLWCCFVPPNHTHTGQERCRYFSSGPDRTVQFWEQDGIPVLSKVNFWVESRLGNRTMKSQKISQYLYNWTKTTPPL
chain 2: B2 chain with T147W
notes: Receptor-masked monovalent murine IL12; also called hIgG4s(HoleStar)-mIL12Rb1(D1) x hIgG4s(Knob)-mIL12p40-p35
On to B7, for which, in experiment [1], the binding result is “binds”.

B8: Fc-IL12(mutein 15) (Fc fusion)
chain: B2 chain with E302A, F303A, K327A
For B8, the “Max fold induction … CTLL2/STAT3-Luc cells” value in experiment [4] was found to be 1.18 fold.

B9: Fc-IL12(mutein 16) (Fc fusion)
chain: B2 chain with W258A, F303A
With B9, in experiment [4], the “EC50 (M) … CTLL2/STAT3-Luc cells” value turned out to be 1.67e-08 M and the “Max fold induction … CTLL2/STAT3-Luc cells” value turned out to be 2.48 fold.
